Assay results reported in US10940182B2, “Use of modified vasoactive intestinal peptides in the treatment of hypertension” (PhaseBio Pharmaceuticals, Inc., priority 2011, dated 2021).

Experiments:
[1] = tested on: Spontaneously hypertensive rats; test: Blood pressure effect of PB1047 in spontaneously hypertensive rats; type: in vivo, rat; details: 10 mg/kg subcutaneous, vs buffer control, FIG. 8
Procedure: The activity of the modified VIP-ELP fusion protein PB1047 was also tested in vivo. Specifically, effects of VIP-ELP fusion protein on blood pressure were tested. Spontaneously hypertensive rats were treated subcutaneous with PB1047 (10 mg/kg) or buffer control and their blood pressures were measured at several points after administration of the fusion protein. Five animals were used for each group and the graphs show the average and the standard deviation.

[2] = molecular target: T1, human Vasoactive Intestinal Peptide Receptor 1 (VPAC1) (Homo sapiens, UniProt P32241); test: cAMP cell-based bioassay, CHO cells expressing VPAC1; details: for in vitro activity for VPAC1 receptor compared with native VIP: cAMP, CHO cells expressing VPAC1, 30 minute incubation, FIG. 7, PB1047 DPP-IV treated
T1 construct: expressed in transfected cells; host or cells: Chinese Hamster Ovary (CHO) cells
T1 sequence (P32241 31-457): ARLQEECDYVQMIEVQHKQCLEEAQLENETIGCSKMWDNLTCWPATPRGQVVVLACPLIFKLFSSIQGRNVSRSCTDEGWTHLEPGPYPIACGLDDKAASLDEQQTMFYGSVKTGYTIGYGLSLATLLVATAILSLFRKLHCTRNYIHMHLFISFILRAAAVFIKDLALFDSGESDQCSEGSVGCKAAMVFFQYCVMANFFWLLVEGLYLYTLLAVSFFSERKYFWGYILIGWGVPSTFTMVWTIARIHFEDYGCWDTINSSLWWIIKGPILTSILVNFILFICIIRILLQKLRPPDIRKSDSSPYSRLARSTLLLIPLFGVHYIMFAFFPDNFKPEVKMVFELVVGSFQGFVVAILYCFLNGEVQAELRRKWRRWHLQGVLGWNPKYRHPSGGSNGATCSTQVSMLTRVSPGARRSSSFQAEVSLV
Procedure: (§1) Since the amount of cAMP accumulation in cells after receptor-mediated ligand binding and activation is directly proportional to the amount of intact peptide or fusion protein present, the assay can be used to determine bioactivity and relative potency.
After 30 minute incubations of various concentrations of the fusion proteins with CHO cells, cells were lysed and the amount of cAMP produced was measured using a commercial kit. PB1047 was DPP-IV treated prior to the addition to the cells.
The activity of the PB1120 fusion peptide was tested in vitro.

[3] = molecular target: T2, human Vasoactive Intestinal Peptide Receptor 2 (VPAC2) (Homo sapiens, UniProt P41587); test: cAMP cell-based bioassay, CHO cells expressing VPAC2; details: for in vitro activity for VPAC2 receptor compared with native VIP: cAMP, CHO cells expressing VPAC2, 30 minute incubation, FIG. 6, PB1047 DPP-IV treated
T2 construct: expressed in transfected cells; host or cells: Chinese Hamster Ovary (CHO) cells
T2 sequence (P41587 24-438): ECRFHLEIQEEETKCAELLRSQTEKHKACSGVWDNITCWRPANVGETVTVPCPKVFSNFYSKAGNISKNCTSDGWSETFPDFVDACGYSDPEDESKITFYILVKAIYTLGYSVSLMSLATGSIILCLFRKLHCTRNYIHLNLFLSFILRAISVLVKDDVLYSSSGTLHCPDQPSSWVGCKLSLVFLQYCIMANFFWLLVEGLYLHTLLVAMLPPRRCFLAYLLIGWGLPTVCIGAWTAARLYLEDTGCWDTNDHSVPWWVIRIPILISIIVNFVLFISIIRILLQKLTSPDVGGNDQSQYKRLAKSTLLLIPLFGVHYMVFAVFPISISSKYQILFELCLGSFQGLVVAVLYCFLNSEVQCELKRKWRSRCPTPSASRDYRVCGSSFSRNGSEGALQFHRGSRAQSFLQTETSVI
Procedure: as §1
In this example, the activity of VIP-ELP fusion proteins PB1046 and PB1047 was tested. […] Both constructs have ELP(1-120) at their C-terminus. […] After 30 minute incubations of various concentrations of the fusion proteins with the cell, the cells were lysed and the amount of cAMP produced was measured using a commercial kit. PB1047 was DPP-IV treated prior to the addition to the cells.
FIG. 11 illustrates the activity of PB1120 for the VPAC2 receptor. […] However, in contrast to the results seen with VPAC1, PB1046 was equipotent for VPAC2 as compared to the native peptide.

[4] = tested on: conscious spontaneously hypertensive rats (SHR); test: Telemetric blood pressure and heart rate in conscious SHR pretreated with anti-hypertensives (Example 8); type: in vivo, rat; details: 9 mg/kg SQ
Procedure: The hemodynamic effects of Vasomera™ when given as a single-dose SQ bolus to conscious spontaneously hypertensive rats (SHR) pretreated with three common anti-hypertensives were tested.
SHR rats (351±4 g, n=8) were instrumented for telemetric BP and ECG monitoring. First, both Vasomera™ (9 mg [177 nmol]/kg, SQ) and placebo (VEH) were assayed in untreated animals. Then, the effects of Vasomera™ were tested during concomitant oral β-adrenergic receptor blockade (+BB, atenolol 20 mg/kg/day), calcium-channel blockade (+CCB, amlodipine 5 mg/kg/day) and ACE-inhibition (+ACE, ramipril 1 mg/kg/day). Mean arterial pressure (MAP) and heart rate (HR) were measured/averaged over 24 hours both pre- and post-dosing.

[5] = tested on: conscious spontaneously hypertensive rats (SHR); test: Telemetric blood pressure and heart rate in conscious SHR, single SQ dose, with and without atenolol (Example 7); type: in vivo, rat; details: for heart rate: +2 hr
Procedure: Here, the effects of PB 1046 (Vasomera™) when given as a single-dose SQ bolus to conscious spontaneously hypertensive rats (SHR) was tested.
SHR rats (351±4 g, n=8) were instrumented for telemetric blood pressure and ECG monitoring. Via a Latin-Square design, the effects of Vasomera (1, 3, and 9 mg/kg SQ) as well as of vehicle (VEH, SQ) were evaluated. Finally, Vasomera™ (9 mg/kg SQ) was assayed during concomitant β-adrenergic receptor blockade (BB, atenolol 20 mg/kg/day PO). Changes in mean arterial pressure (MAP) and heart rate (HR) were measured.

[6] = under β-adrenergic receptor blockade (atenolol 20 mg/kg/day)
[7] = untreated rats, averaged over 24 hours

B1: PB1047: VIP-ELP fusion protein with tripeptide MAA at the N-terminus (Met removed to leave AA), ELP1-120 at C-terminus (SEQ ID NO: 15) (protein)
chain: MAAHSDAVFTDNYTRLRKQMAVKKYLNSILNVPGVGVPGVGVPGGGVPGAGVPGVGVPGVGVPGVGVPGGGVPGAGVPGGGVPGVGVPGVGVPGGGVPGAGVPGVGVPGVGVPGVGVPGGGVPGAGVPGGGVPGVGVPGVGVPGGGVPGAGVPGVGVPGVGVPGVGVPGGGVPGAGVPGGGVPGVGVPGVGVPGGGVPGAGVPGVGVPGVGVPGVGVPGGGVPGAGVPGGGVPGVGVPGVGVPGGGVPGAGVPGVGVPGVGVPGVGVPGGGVPGAGVPGGGVPGVGVPGVGVPGGGVPGAGVPGVGVPGVGVPGVGVPGGGVPGAGVPGGGVPGVGVPGVGVPGGGVPGAGVPGVGVPGVGVPGVGVPGGGVPGAGVPGGGVPGVGVPGVGVPGGGVPGAGVPGVGVPGVGVPGVGVPGGGVPGAGVPGGGVPGVGVPGVGVPGGGVPGAGVPGVGVPGVGVPGVGVPGGGVPGAGVPGGGVPGVGVPGVGVPGGGVPGAGVPGVGVPGVGVPGVGVPGGGVPGAGVPGGGVPGVGVPGVGVPGGGVPGAGVPGVGVPGVGVPGVGVPGGGVPGAGVPGGGVPGVGVPGVGVPGGGVPGAGVPGVGVPGVGVPGVGVPGGGVPGAGVPGGGVPGWP
modifications: MAA-VIP ELP1-120
diastolic blood pressure [1]: significantly reduced | systolic blood pressure [1]: significantly reduced | in vitro activity for VPAC1 receptor compared with native VIP [2]: about the same as it was in the test for VPAC2 receptor | in vitro activity for VPAC2 receptor compared with native VIP [3]: less active

B2: PB1046: VIP-ELP fusion protein: VIP with Met at the N-terminus and ELP1-120 fused at the C-terminus (SEQ ID NO: 14) (protein)
chain: MHSDAVFTDNYTRLRKQMAVKKYLNSILNVPGVGVPGVGVPGGGVPGAGVPGVGVPGVGVPGVGVPGGGVPGAGVPGGGVPGVGVPGVGVPGGGVPGAGVPGVGVPGVGVPGVGVPGGGVPGAGVPGGGVPGVGVPGVGVPGGGVPGAGVPGVGVPGVGVPGVGVPGGGVPGAGVPGGGVPGVGVPGVGVPGGGVPGAGVPGVGVPGVGVPGVGVPGGGVPGAGVPGGGVPGVGVPGVGVPGGGVPGAGVPGVGVPGVGVPGVGVPGGGVPGAGVPGGGVPGVGVPGVGVPGGGVPGAGVPGVGVPGVGVPGVGVPGGGVPGAGVPGGGVPGVGVPGVGVPGGGVPGAGVPGVGVPGVGVPGVGVPGGGVPGAGVPGGGVPGVGVPGVGVPGGGVPGAGVPGVGVPGVGVPGVGVPGGGVPGAGVPGGGVPGVGVPGVGVPGGGVPGAGVPGVGVPGVGVPGVGVPGGGVPGAGVPGGGVPGVGVPGVGVPGGGVPGAGVPGVGVPGVGVPGVGVPGGGVPGAGVPGGGVPGVGVPGVGVPGGGVPGAGVPGVGVPGVGVPGVGVPGGGVPGAGVPGGGVPGVGVPGVGVPGGGVPGAGVPGVGVPGVGVPGVGVPGGGVPGAGVPGGGVPGWP
modifications: M-VIP ELP1-120
duration of decreases in blood pressure post-dosing ([4]; FIG. 15A): up to 12 hours | change in MAP ([4]; rats pre-treated with amlodipine 5 mg/kg/day oral): −13±2% | change in MAP ([4]; rats pre-treated with atenolol 20 mg/kg/day oral): −14±1% | change in MAP ([4]; rats pre-treated with ramipril 1 mg/kg/day oral): −9±2% | change in heart rate [4, 6]: +6±1% | heart rate post-dosing [4, 6]: 294±2 bpm | MAP post-dosing [4, 7]: 171±5 mmHg | change in heart rate [4, 7]: +8±1% | heart rate post-dosing [4, 7]: 384±8 bpm | lowering of MAP, post- vs pre-dosing [4, 7]: 9±1% | chronotropy under co-treatment ([4]; with amlodipine 5 mg/kg/day): unaffected | chronotropy under co-treatment ([4]; with ramipril 1 mg/kg/day): unaffected | adverse clinical effects ([4]; SHR, with or without anti-hypertensives): no adverse clinical effects were noted | fold less active than the native VIP peptide on the VPAC1 receptor ([2]; FIG. 10): approximately 11 fold | in vitro activity for VPAC1 receptor compared with native VIP [2]: much less active than native VIP protein | potency for VPAC2 as compared to the native peptide ([3]; FIG. 11): equipotent | selectivity for VPAC2 receptor over VPAC1 receptor ([3]; cAMP assays, FIG. 6 and 7): selectively activates VPAC2 receptor over VPAC1 receptor | in vitro activity for VPAC2 receptor compared with native VIP [3]: somewhat more active than native VIP protein | lowering of MAP vs VEH ([5]; 9 mg/kg (177 nmol/kg) SQ, +6 hr): 16±3% | heart rate ([5]; 9 mg/kg SQ with β-adrenergic receptor blockade (atenolol 20 mg/kg/day PO)): 308±3 bpm | MAP ([5]; 9 mg/kg SQ with β-adrenergic receptor blockade (atenolol 20 mg/kg/day PO), +6 hr): 131±3 mmHg | heart rate ([5]; 9 mg/kg SQ): 370±15 bpm | MAP ([5]; 9 mg/kg SQ, +6 hr): 154±5 mmHg | duration of dose-dependent decreases in blood pressure post-dosing ([5]; 1, 3, 9 mg/kg SQ, FIG. 14A): up to 12 hours | adverse clinical effects ([5]; SHR, 1-9 mg/kg SQ, with or without atenolol): No adverse clinical effects were noted
